Data taken from US20220023399A1, “BLOOD COMPONENT POTENTIATION OF LYTIC PROTEIN ANTI-BACTERIAL ACTIVITY AND METHODS AND USES THEREOF” (priority 2017, published 2022).
Several values for one entry are separate records, joined by “and”; a condition that tells them apart may be missing. Identical values can stand only once.

Experiments:
[1] = tested on: 171 clinical S. aureus isolates (MSSA, MRSA, vancomycin-, linezolid-, daptomycin-resistant); test: MIC by broth microdilution in CAMHB vs human serum, 171 clinical isolates
S. aureus strain MW2 [2] = test: Transmission electron microscopy of lytic activity; assay type: cell-based
Method: FIG. 13 depicts TEM analysis of S. aureus strain MW2 treated with PlySs2 (CF-301) in either human serum (HuS) or MHB for 15 minutes.
Staphylococci were treated with a range of PlySs2 (CF-301) concentrations for […] in either human serum or MHB before analysis by transmission electron microscopy (TEM). […] In addition to the more rapid bacteriolysis in serum, the lytic event was visually different in comparison to the event in MHB. In human serum, all bacteria are encased in a proteinaceous sheath presumably consisting of host proteins including HSA. […] In contrast, the lytic event in MHB appears as the classic cytoplasmic membrane bubbling and extrusion just prior to lysis.
Electron Microscopy. Mid-log phase strain MW2 growing in either CAMHB or human serum (Sigma-Aldrich) was treated with the indicated concentrations of PlySs2 (CF-301) or buffer alone (control) at 37° C. for 15 minutes. The cells were then washed with 1× phosphate buffer (PB) and resuspended in a solution of 4% paraformaldehyde and 2% glutaraldehyde in 0.1 M cacodylate buffer (pH 7.4). The samples were post-fixed in 1% osmium tetroxide, block stained with uranyl acetate, and processed according to standard procedures by The Rockefeller University Electron Microscopy Service. Samples were visualized using a Tecnai™ Spirit BT Transmission Electron Microscope (FEI). […]

MRSA strain MW2 [3] = test: Rabbit infective endocarditis model; assay type: in vivo, New Zealand White Rabbits; conditions: rabbit; total dose ≥0.09 mg/kg PlySs2 (CF-301) in addition to DAP below the HTD equivalent
[4] = tested on: S. aureus (strain not given); test: MIC assay in supplemented media (recapitulation of blood effect; delipidated serum with fatty acids); assay type: cell-based
[5] = tested on: S. aureus JMI 4789 (MRSA); test: Checkerboard assay, additional MRSA strains; assay type: cell-based; conditions: paired agent not given
[6] = clinical grade, recombinant from E. coli; cited from earlier work
[7] = tested on: methicillin-resistant S. aureus (MRSA) strain MW2; test: Time-kill assay in blood matrices and MHB; assay type: cell-based
[8] = tested on: S. aureus NRS 271 (MRSA, LRSA); test: Checkerboard assay, additional MRSA strains; assay type: cell-based; conditions: paired agent not given
S. aureus strain MW2 [9] = test: Synergy time-kill assay; assay type: cell-based; conditions: human serum
MRSA strain MW2 [10] = test: Rat infective endocarditis model; assay type: in vivo, Sprague-Dawley rats
S. aureus strain MW2 [11] = conditions: CAMHB (Schuch 2014); cited from earlier work
[12] = tested on: S. aureus (strain not given); test: MIC analysis of various lysins, chimeric lysins and antibiotics in MHB and human serum; assay type: cell-based; conditions: Table 2
[13] = tested on: S. aureus ATCC 43300 (MRSA); test: Checkerboard assay, additional MRSA strains; assay type: cell-based; conditions: paired agent not given
[14] = tested on: S. aureus (strain not given); test: MIC analysis of various lysins, chimeric lysins and antibiotics in MHB and human serum; assay type: cell-based; conditions: Table 14 (Example 2)
Method: To further evaluate the binding domain relevance to the serum component effect, various chimerics were constructed by replacing or swapping out one binding domain for another. Chimeric lysins having the Sal1 CHAP catalytic domain with ClyS binding domain, PlySs2 (CF-301) binding domain, or lysostaphin binding domain were assayed for MIC using MHB versus human serum. the results are depicted below in TABLE 14.

S. aureus strain MW2 [15] = test: Lytic assay (loss of optical density) and specific activity
S. aureus HPV 107 (MRSA) = test: Checkerboard assay, additional MRSA strains; assay type: cell-based; conditions: paired agent not given
S. aureus NRS 100 (MRSA) = test: Checkerboard assay, additional MRSA strains; assay type: cell-based; conditions: paired agent not given
S. aureus JMI 227 (MRSA) = test: Checkerboard assay, additional MRSA strains; assay type: cell-based; conditions: paired agent not given
[16] = medium head missing (human serum)

B1: PlySs2 (CF-301): antistaphylococcal lysin from a Streptococcus suis prophage; N-terminal CHAP domain, C-terminal SH3-type binding domain; SEQ ID NO:3 (protein, listed as Streptococcus suis)
chain: MTTVNEALNNVRAQVGSGVSVGNGECYALASWYERMISPDATVGLGAGVGWVSGAIGDTISAKNIGSSYNWQANGWTVSTSGPFKAGQIVTLGATPGNPYGHVVIVEAVDGDRLTILEQNYGGKRYPVRNYYSAASYRQQVVHYITPPGTVAQSAPNLAGSRSYRETGTMTVTVDALNVRRAPNTSGEIVAVYKRGESFDYDTVIIDVNGYVWVSYIGGSGKRNYVATGATKDGKRFGNAWGTFK
MIC Range ([1]; MRSA (N 75), CAMHB): 2-128 | MIC Range ([1]; MRSA (N 75), human serum): 0.25-2 | MIC Range ([1]; MSSA (N 74), CAMHB): 8-32 | MIC Range ([1]; MSSA (N 74), human serum): 0.25-1 | MIC Range ([1]; Other (N 22: 12 vancomycin-, 5 linezolid-, 5 daptomycin-resistant strains), CAMHB): 0.5-32^ | MIC Range ([1]; Other (N 22: 12 vancomycin-, 5 linezolid-, 5 daptomycin-resistant strains), human serum): 0.25-2 | concentration at which bacteriolytic activity was observed by TEM (only the highest tested) (S. aureus strain MW2 [2]; MHB): 5 µg/mL | bacteriolysis observed by TEM (S. aureus strain MW2 [2]; human serum, all concentrations over a 100-fold range): widespread evidence of lysis | decrease in bacterial densities as compared to DAP treatment alone (MRSA strain MW2 [3]): 3 log 10 | Fold decrease in MIC ([4]; 50% MHB/50% human serum (heat inactivated) + HSA, 40 mg/mL): 4 | Fold decrease in MIC ([4]; 50% MHB/50% human serum (heat inactivated) + HuLYZ, 10 μg/mL): 2 | Fold decrease in MIC ([4]; 50% MHB/50% human serum (heat inactivated) + HuLYZ, 10 μg/mL + HSA 40 mg/mL): 16 | Fold decrease in MIC ([4]; 50% MHB/50% human serum (heat inactivated) + MouseSA, 40 mg/mL): 1 | Fold decrease in MIC ([4]; 50% MHB/50% human serum (heat inactivated) + RabSA, 40 mg/mL): 4 | Fold decrease in MIC ([4]; 50% MHB/50% human serum (heat inactivated) + RatSA, 40 mg/mL): 2 | Fold decrease in MIC ([4]; MHB supplemented with HSA, 40 mg/mL): 8 | Fold decrease in MIC ([4]; MHB supplemented with HuLYZ, 10 μg/mL): 2 | Fold decrease in MIC ([4]; MHB supplemented with HuLYZ, 10 μg/mL + HSA 40 mg/mL): 16 | Fold decrease in MIC ([4]; MHB supplemented with RabSA, 40 mg/mL): 8 | Fold decrease in CF-301 MIC compared to media alone ([4]; delipidated human serum + Oleate (0.625 mg/mL)): 8 | Fold decrease in CF-301 MIC compared to media alone ([4]; delipidated human serum + Palmitate (0.625 mg/mL)): 16 | Fold decrease in CF-301 MIC compared to media alone ([4]; delipidated human serum + Palmitate + Oleate): 16 | ΣFICavg ([5]; CAMHB): 0.64 | ΣFICmin ([5]; CAMHB): 0.5 | ΣFICavg [5, 16]: 0.29 | ΣFICmin [5, 16]: 0.25 | pH range over which active [6]: 6-9.7 pH | temperature range over which active [6]: 16-55 °C | minimum sterilizing concentration ([7]; MHB): 320 µg/mL | minimum sterilizing concentration ([7]; all human blood matrices (whole blood, serum, plasma), sterilizing by 24 hours): 3.2 µg/mL | sterilizing concentration ([7]; calf serum): 32 µg/mL | sterilizing concentration ([7]; dog serum): 3.2 µg/mL | sterilizing concentration ([7]; mouse serum): > 320 µg/mL | sterilizing concentration ([7]; rabbit serum): 3.2 µg/mL | sterilizing concentration ([7]; rat serum): 32 µg/mL | difference in sterilizing activity/potency, blood compared to MHB ([7]; strain MW2, human blood matrices vs MHB): 100 fold | ΣFICavg ([8]; CAMHB): 0.5 | ΣFICmin ([8]; CAMHB): 0.38 | ΣFICavg [8, 16]: 0.39 | ΣFICmin [8, 16]: 0.25 | concentration of each agent in PlySs2 (CF-301) + lysostaphin combination sterilizing at 24 hours (S. aureus strain MW2 [9]): 0.005 µg/mL | minimum concentration demonstrating synergy with daptomycin (S. aureus strain MW2 [9]): 0.025 µg/mL | fold decrease in minimum sterilizing concentration vs single agent (S. aureus strain MW2 [9]; in combination with DAP): 64 fold | fold lower doses giving comparable efficacy in the rabbit vs the rat model (MRSA strain MW2 [10]; S. aureus infectious endocarditis models): 111 fold | estimate AUC/MIC ratio required to achieve maximal efficacy (MRSA strain MW2 [10]; rat IE model, 10 mg/kg in addition to DAP, 3 log10 drop relative to DAP alone): ≥ 0.87 | drop in CFU/g in heart valve vegetation (MRSA strain MW2 [10]; rat, total dose 10 mg/kg PlySs2 (CF-301) in addition to HTD equivalent of DAP, relative to DAP alone): ~3 log 10 | fold higher AUC exposure required for similar bactericidal effect in rats compared to rabbits (MRSA strain MW2 [10]; rats 10 mg/kg vs rabbits 0.18 mg/kg): > 20 fold | fold higher dose required for similar bactericidal effect in rats compared to rabbits (MRSA strain MW2 [10]; rats 10 mg/kg vs rabbits 0.18 mg/kg, in addition to DAP): ~50 fold and > 50 fold | minimum concentration required for synergy with daptomycin (S. aureus strain MW2 [11]): 4 µg/mL | Minimal inhibitory concentration, MHB ([12]; MHB): 32 µg/mL | Fold decrease in MIC ([12]; human serum vs MHB): 32 | Minimal inhibitory concentration, Human serum ([12]; human serum): 1 µg/mL | ΣFICavg ([13]; CAMHB): 0.87 | ΣFICmin ([13]; CAMHB): 0.5 | ΣFICavg [13, 16]: 0.29 | ΣFICmin [13, 16]: 0.25 | Minimal inhibitory concentration, MHB ([14]; MHB): 32 µg/mL | Fold decrease in MIC ([14]; human serum vs MHB): 32 | Minimal inhibitory concentration, Human serum ([14]; human serum): 1 µg/mL | Fold increase in specific activity (S. aureus strain MW2 [15]; supplement HuLYZ, 10 μg/mL): 9.8 | Fold increase in specific activity (S. aureus strain MW2 [15]; supplement rHSA, 4%): 17.8 | Fold increase in specific activity (S. aureus strain MW2 [15]; supplements rHSA, HuLYZ): 25 | ΣFICavg (S. aureus HPV 107 (MRSA); CAMHB): 0.64 | ΣFICmin (S. aureus HPV 107 (MRSA); CAMHB): 0.5 | ΣFICavg (S. aureus HPV 107 (MRSA); [16]): 0.44 | ΣFICmin (S. aureus HPV 107 (MRSA); [16]): 0.38 | ΣFICavg (S. aureus NRS 100 (MRSA); CAMHB): 0.75 | ΣFICmin (S. aureus NRS 100 (MRSA); CAMHB): 0.5 | ΣFICavg (S. aureus NRS 100 (MRSA); [16]): 0.29 | ΣFICmin (S. aureus NRS 100 (MRSA); [16]): 0.25 | ΣFICavg (S. aureus JMI 227 (MRSA); CAMHB): 0.64 | ΣFICmin (S. aureus JMI 227 (MRSA); CAMHB): 0.5 | ΣFICavg (S. aureus JMI 227 (MRSA); [16]): 0.29 | ΣFICmin (S. aureus JMI 227 (MRSA); [16]): 0.25
